Laboratory results as given in patent US20040091465A1, “Therapeutic antiangiogenic compositions and methods” (priority 2002, published 2004).

Legend:
[1] = test system: bovine capillary endothelial cells; experiment: Bovine capillary endothelial (BCE) cell proliferation assay, 72 hours, bFGF; format: cell-based
Protocol: To further characterize the 20 kDa inhibitor, we tested it on several cell lines of endothelial and non-endothelial origin. For the BCE assay, bovine capillary endothelial cells were obtained and grown as previously described (Folkman et al., 1979). For the proliferation assay, cells were washed with PBS and dispersed in a 0.05% solution of trypsin. A cell suspension (25,000 cells/ml) was made with DMEM+10% BCS+1% GPS, plated onto gelatinized 24-well culture plates ([…]), and incubated (37° C., 10% CO2) for 24 hours. The media was replaced with 0.25 ml of DMEM+5% BCS+1% GPS and the test sample applied. After 20 minutes of incubation, media and bFGF were added to obtain a final volume of 0.5 ml of DMEM+5% BCS+1% GPS+1 ng/ml bFGF. After 72 hours, cells were dispersed in trypsin, resuspended in Hematall (Fisher Scientific, Pittsburgh, Pa.), and counted by Coulter counter.

[2] = test system: cells of non-endothelial origin; experiment: Non-endothelial cell proliferation assays, stated for all lines together; format: cell-based; details: doses 1 log unit higher than those used to inhibit capillary endothelial cell proliferation
Protocol: (§1) Bovine aortic smooth muscle (SMC), bovine retinal pigment epithelial (RPE), mink lung epithelial (MLE), Lewis lung carcinoma (LLC), and EOMA cells and 3T3 fibroblasts were maintained in a 10% CO2 and 37° C. incubator. For the proliferation assays, cells were washed with PBS and were dispersed in a 0.05% solution of trypsin. Optimal conditions for the cell proliferation assays were established for each different cell type. Fetal calf serum (FCS) was used for the RPE, MLE, and LLC cells and BCS was used for the other cell types. A cell suspension (20,000 cells/ml for SMC, RPE, MLE; 15,000 cells/ml for 3T3; 10,000 cells/ml for LLC, EOMA) was made with DMEM+10% bovine serum+1% GPS, plated onto 24 well culture plates (0.5 ml/well), and incubated (37° C., 10% C02) for 24 hours. The media was replaced with 0.5 ml of DMEM+5% bovine serum+1% GPS and the test sample applied. After 72 hours, cells were dispersed in trypsin, resuspended in Hematall (Fisher Scientific, Pittsburgh, Pa.), and counted by Coulter counter.

[3] = test system: Mink lung epithelial cells; experiment: Non-endothelial cell proliferation assay, MLE; format: cell-based; details: 72 hours
Protocol: as §1

3T3 fibroblasts = experiment: Non-endothelial cell proliferation assay, 3T3; format: cell-based; details: 72 hours
Protocol: as §1

[4] = test system: Bovine retinal pigment epithelial cells; experiment: Non-endothelial cell proliferation assay, RPE; format: cell-based; details: 72 hours
Protocol: as §1

[5] = test system: Lewis Lung carcinoma cells; experiment: Non-endothelial cell proliferation assay, LLC; format: cell-based; details: 72 hours
Protocol: as §1

[6] = test system: Bovine aortic smooth muscle cells; experiment: Non-endothelial cell proliferation assay, SMC; format: cell-based; details: 72 hours
Protocol: as §1

[7] = test system: EOMA hemangioendothelioma cells; experiment: Non-endothelial cell proliferation assay, EOMA; format: cell-based, murine; details: 72 hours
Protocol: as §1

[8] = test system: Lewis lung carcinoma primary tumors; experiment: Systemic therapy of Lewis lung carcinoma primary tumors; format: in vivo, mice; details: 20 mg/kg/day, FIG. 11

Molecule | Dose at which inhibition of endothelial cell proliferation was first observed ([1]; 72 hour BCE assay) | Dose giving maximal inhibition of endothelial cell proliferation ([1]; 72 hour BCE assay) | Effect on bovine capillary endothelial cell proliferation ([1]; 72 hour proliferation assay, 1 ng/ml bFGF) | Inhibition of proliferation of cells of non-endothelial origin [2] | Effect on mink lung epithelial cell proliferation [3] | Effect on 3T3 fibroblast proliferation (3T3 fibroblasts) | Effect on 3T3 fibroblast proliferation (3T3 fibroblasts; listed as ENDOSTATIN) | Effect on bovine retinal pigment epithelial cell proliferation [4] | Effect on Lewis lung carcinoma cell proliferation [5] | Effect on Lewis lung carcinoma cell proliferation ([5]; listed as ENDOSTATIN) | Effect on bovine aortic smooth muscle cell proliferation [6] | Effect on bovine aortic smooth muscle cell proliferation ([6]; listed as ENDOSTATIN) | Effect on EOMA hemangioendothelioma cell proliferation [7] | Effect on EOMA hemangioendothelioma cell proliferation ([7]; listed as ENDOSTATIN) | Inhibition of Lewis lung carcinoma tumor growth by human endostatin [8]
endostatin: 20 kDa inhibitor of endothelial cell proliferation purified from EOMA conditioned media; C-terminal fragment of collagen XVIII NC1 domain (protein, listed as Homo sapiens) HSHRDFQPVLHLVALNSPLSGGMRGIRGADFQCFQQARAVGLAGTFRAFLSSRLQDLYSIVRRADRAAVPIVNLKDELLFPSWEALFSGSEGPLKPGARIFSFDGKDVLRHPTWPQKSVWHGSDPNGRRLTESYCETWRTEAPSATGQASSLLGGRLLGQSAASCHHAYIVLCIENSFMTASK | 100 ng/mL | ≥ 600 ng/mL | INHIBITED | No significant inhibition | NON-INHIBITED | no effect | NON-INHIBITED | NON-INHIBITED | no effect | NON-INHIBITED | no effect | NON-INHIBITED | no effect | NON-INHIBITED | –
endostatin derived from human: recombinant endostatin from the human sequence, produced in E. coli (protein, listed as Homo sapiens) HSHRDFQPVLHLVALNSPLSGGMRGIRGADFQCFQQARAVGLAGTFRAFLSSRLQDLYSIVRRADRAAVPIVNLKDELLFPSWEALFSGSEGPLKPGARIFSFDGKDVLRHPTWPQKSVWHGSDPNGRRLTESYCETWRTEAPSATGQASSLLGGRLLGQSAASCHHAYIVLCIENSFMTASK | – | – | – | – | – | – | – | – | – | – | – | – | – | – | effectiveness
